A short description of this data set: PADRE peptide solubility / staying in solution. In kind it is physicochemical. As for the experimental part: It is possible that the PADRE constructs disclosed herein may have solubility limitations in aqueous solutions (<5 mg/ml max concentration) versus DMSO solutions (<10 mg/ml max concentration), so conditions for PADRE solubility were adjusted to achieve optimum click conjugation efficiency. Ionic gelling may have occurred during the CDAP or DMTMM direct incorporation of PADRE 2, as buffer matrix with high ionic strength in higher concentrated Pn3 solutions promotes gelling. Aggregation with an alkynated CRM197 batch fed approach was also observed in click conjugation reactions. To avoid potential solubility issues, the following conditions with PADRE 3 were proposed: 1. Lower the ionic strength of the reaction matrix and diafiltration matrix to 10 mM phosphate pH 7.0, 2. Slow dose addition of alkynated PADRE 3 into the reaction, and 3. make stock solution of alkynated PADRE 3 in water instead of DMSO to eliminate the need for a lyophilization step.
A reaction was run omitting DMSO from a click conjugate protocol for alkynated trimeric gp120 Epitope mimic peptides using 5 mM Sodium ascorbate, 5 mM aminoguanidine, 0.1 mM CuSO4, and 0.5 mM THPTA ligand in 10 mM phosphate buffer at pH 7.4 containing 5% DMSO for 18 hr [Schellinger et al. (2011) J Am Chem Soc 133(10):3230-3233]. […]

Square brackets hold non-standard residues; d marks the D form. Ends that are not written are not given here. Pra = C#CC[C@H](N)C(=O)O

The values that follow come from US20260191943A1, “Methods for Preparing Conjugated Capsular Saccharide Antigens and Uses Thereof” (PFIZER INC., priority 2022, published 2026).

“{d-ALA}KVAAWTLKAA{d-ALA}{Pra} ([dA]KVAAWTLKAA[dA][Pra]) [PADRE 3]”: where the note is “37° C. in the incubator at 200 rpm agitation, DMSO omitted”, the peptide solution solubility result was “stayed soluble”. Also, the “stock solution staying in solution” value (alkynated PADRE 3 stock in water, after 18 hr at room temperature) was “did not come out of solution”.
